B1: F1*; the commonest letter at each place (parent)
chain: GAGACCGCAACTGAAAAGTTGTTATCACTTGTCGTAAGACACTTTGGATGGGTTGAAGTTCTGCACGTAGAAGCAAAAGGC

Variants of: B1
Assay: fraction ligated after 30 min (ligated reads / total reads); higher = more ligase activity
Conditions: with F1*sub RNA substrate (template-directed ligation), 42 °C
Protocol: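 Chip-synthesised pool of F1* ligase ribozyme variants (all single and double substitutions, single, double and triple deletions in the catalytic core and GAA bulge, plus designed variants) was transcribed with T7 and reacted as a pool with excess substrate F1*sub for 30 min at 42 C in 50 mM EPPS pH 8.5, 25 mM MgCl2. Ligated and unligated bands were separated by PAGE, barcoded by RT and deep sequenced; fraction ligated = ligated reads / total reads per variant, relative activity = FL / FL of wild type (0.826). Sequences are the DNA template of the ribozyme.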

Row | Variant | fraction ligated
1 | T44C T49A | 0.737
2 | T29C T30G | 0.805
3 | T29C A56G | 0.788
4 | T23A T45C | 0.222
5 | T29A G50A | 0.295
6 | T30A T45C | 0.746
7 | C26T G34C | 0.855
8 | A36G G38A | 0.828
9 | A36C A48T | 0.8
10 | T23C G31T | 0.787
11 | G34T A57C | 0.806
12 | T30G A41G | 0.84
13 | T29A T49A | 0.784
14 | T29A T49C | 0.66
15 | T25G T32C | 0.364
16 | T25C C33G | 0.144
17 | T29G T49A | 0.753
18 | A36T A56G | 0.795
19 | A36T A56T | 0.823
20 | T43A T44A | 0.848
21 | C26A T29C | 0.804
22 | G38C T45A | 0.551
23 | G31T C33A | 0.831
24 | T25A T43G | 0.624

Row | Variant | fraction ligated
25 | C33G A41C | 0.822
26 | C42G T45C | 0.756
27 | G47C G55C | 0.0788
28 | A24G G38A | 0.752
29 | T30C C33G | 0.837
30 | C42A G50C | 0.239
31 | G55T A56C A57T | 0.0111
32 | A37T G38A | 0.827
33 | G31C G38A | 0.811
34 | G38A A48T | 0.252
35 | A39G A41G | 0.791
36 | T32C C33G | 0.797
37 | T32C C33T | 0.849
38 | A27G T49G | 0.774
39 | C26G G55A | 0.169
40 | A27G T43A | 0.829
41 | A39C T45C | 0.634
42 | T23A T29A | 0.826
43 | T32C G55A | 0.771
44 | A24C T35G | 0.759
45 | A27G A48G | 0.788
46 | G38T G46A | 0.801
47 | C33T T44A | 0.844
48 | T43G A48G | 0.78

Row | Variant | fraction ligated
49 | A24G A39T | 0.664
50 | T25C A48G | 0.794
51 | T30G A36C | 0.833
52 | G34A G46A | 0.807
53 | T32C T44A | 0.751
54 | A48G G50C | 0.0771
55 | C42G T43C | 0.836
56 | A37G G47A | 0.831
57 | G34A T43C | 0.779
58 | T43C G55C | 0.571
59 | T23C A57C | 0.81
60 | C28G A57C | 0.77
61 | A36T A57G | 0.841
62 | A36T A57C | 0.823
63 | T45A T49C | 0.0557
64 | C40A A48C | 0.658
65 | C26A G46A | 0.73
66 | T32G T35C | 0.802
67 | A37G T43C | 0.853
68 | G34C G47A | 0.774
69 | T29G C40A | 0.84
70 | A48G T49G | 0.752
71 | A24T G31C | 0.0424
72 | A39C A48T | 0.465

Row | Variant | fraction ligated
73 | A37G G50A | 0.659
74 | T35G C42T | 0.838
75 | A39T A48T | 0.541
76 | C33T A41C | 0.789
77 | C26A C33G | 0.792
78 | A24C T43A | 0.625
79 | C28A A57T | 0.789
80 | C40T G50T | 0.784
81 | T32C G46C | 0.717
82 | C42T T45G | 0.557
83 | C26T T45C | 0.524
84 | T23A T49C | 0.731
85 | G34A A37C | 0.835
86 | A27G G50C | 0.161
87 | T23C T29A | 0.82
88 | T43G G50A | 0.311
89 | T30A G47T | 0.373
90 | A39T A41G | 0.769
91 | A27C T45C | 0.335
92 | G47C T49C | 0.0543
93 | G47C T49G | 0.0669
94 | C40T G47C | 0.163
95 | T32C A39C | 0.772
96 | G38A | 0.844

Row | Variant | fraction ligated
97 | G46C T49C | 0.0853
98 | C26G T30C | 0.676
99 | C26A A27G | 0.747
100 | A27C G38T | 0.837
101 | T25G C40T | 0.732
102 | C26G C33T | 0.738
103 | C26G C33A | 0.473
104 | A39T G50C | 0.0837
105 | A39T G50T | 0.413
106 | T32C C40G | 0.743
107 | T44A T49C | 0.737
108 | T44A T49A | 0.779
109 | T44A T49G | 0.785
110 | G46A T49G | 0.627
111 | A37T C40A | 0.809
112 | A37T C40G | 0.82
113 | A48C G55A | 0.743
114 | A27C A37G | 0.817
115 | G38C A48T | 0.0108
116 | G34A T35A | 0.848
117 | A27G G38C | 0.798
118 | T30C A37C | 0.794
119 | T29G G38C | 0.844
120 | C28G A48C | 0.405

Row | Variant | fraction ligated
121 | A27T C40G | 0.807
122 | G34T G46A | 0.823
123 | T43A A57G | 0.793
124 | T25A C26G | 0.0644
125 | T23G G46A | 0.809
126 | T23G G46C | 0.803
127 | T29C A39G | 0.824
128 | T29C A39T | 0.807
129 | C28A T45C | 0.499
130 | A36G T45A | 0.785
131 | C33G A48G | 0.793
132 | T49G A57T | 0.706
133 | C28A T44C | 0.802
134 | A37T G50T | 0.793
135 | A37T T45C | 0.768
136 | C33G T49C | 0.312
137 | A27T G38A | 0.811
138 | C42A G55A | 0.837
139 | C28T C33T | 0.822
140 | T29G T35G | 0.813
141 | A27G T44A | 0.812
142 | T30A T44C | 0.828
143 | C28T G47A | 0.787
144 | C42T G47C | 0.11

Row | Variant | fraction ligated
145 | A41T A57C | 0.787
146 | C26A A36C | 0.79
147 | A41C G50A | 0.28
148 | T23C A27T | 0.804
149 | T23G T35C | 0.827
150 | T23A A56G | 0.686
151 | T23A A39G | 0.819
152 | C28A C40T | 0.773
153 | A36T G50C | 0.467
154 | T49C G50A | 0.216
155 | T23G A57C | 0.779
156 | A41G G55A | 0.785
157 | C33A G50T | 0.627
158 | C33A G50C | 0.0908
159 | C42A G47A | 0.832
160 | G46C G47A | 0.798
161 | G38C G47C | 0.0356
162 | T44A A56T | 0.801
163 | T25C A56C | 0.0931
164 | A36G A41C | 0.795
165 | A24G T44A | 0.817
166 | G47T A56C | 0.0301
167 | A48G A57G | 0.803

From the supplement of paper PMC6755084
